Laboratory results reported in PMC3319578, “Talin Contains A C-Terminal Calpain2 Cleavage Site Important In Focal Adhesion Dynamics” (PLoS ONE, 2012).
Substitutions are numbered along the chain they refer to. In names and notes the source's numbering stands.

B1: talin1 2300–2541 polypeptide (C-terminal actin-binding site and dimerisation domain), wild type (domain or fragment, mouse, UniProt P26039 2300-2541, looked up)
chain: DPTVIAENELLGAAAAIEAAAKKLEQLKPRAKPKEADESLNFEEQILEAAKSIAAATSALVKAASAAQRELVAQGKVGAIPANALDDGQWSQGLISAARMVAAATNNLCEAANAAVQGHASQEKLISSAKQVAASTAQLLVACKVKADQDSEAMKRLQAAGNAVKRASDNLVKAAQKAAAFEDQENETVVVKEKMVGGIAQIIAAQEEMLRKERELEEARKKLAQIRQQQYKFLPSELRDEH
notes: Cloned into pET-151/D-TOPO; dimer by gel filtration; also called talin 2300–2541; ABS-DD; source: E. coli, purified (Ni-NTA, TEV cleavage, Resource-Q)
B2: talin1 2300–2541 E2492G mutant (domain or fragment, mouse, UniProt P26039 2300-2541, looked up)
chain: B1 chain with E193G
notes: talin1, mouse, residues 2300–2541 with E2492G; Dimer by gel filtration; also called E2494G (as printed once in the text); source: E. coli, purified (Ni-NTA, TEV cleavage, Resource-Q)

Biological target: the molecule itself
Test: SEC; analytical gel filtration, Superdex-75 (10/300), room temperature, 20 mM Tris pH 8.0, 150 mM NaCl, 2 mM DTT, 0.8 ml/min

Protein | stoichiometry N
B1 | 2
B2 | 2
